From patent US20110123440A1

Biological target: human FcRn (soluble recombinant, 6XHis, co-expressed with beta2 microglobulin) (human)
Test: luminex binding assay, pH 6

human FcRn (soluble recombinant, 6XHis, co-expressed with beta2 microglobulin) (human), sequence (P55899 other isoform, or with tags, fused parts or gaps): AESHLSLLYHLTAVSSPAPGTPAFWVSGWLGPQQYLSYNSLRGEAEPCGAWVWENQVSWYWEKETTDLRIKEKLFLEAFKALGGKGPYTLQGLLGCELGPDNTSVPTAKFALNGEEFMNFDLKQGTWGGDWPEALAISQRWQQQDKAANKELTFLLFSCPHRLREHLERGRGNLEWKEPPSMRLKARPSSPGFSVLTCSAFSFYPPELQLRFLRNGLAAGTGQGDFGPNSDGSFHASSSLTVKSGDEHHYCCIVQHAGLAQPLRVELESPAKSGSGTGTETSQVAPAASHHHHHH

Row | Substance | FcRn binding at pH 6 (fold difference vs wild type anti-CD30) (fold vs wild type)
1 | anti-CD30 antibody (5F11) Fc variant E345W | 1.3
2 | anti-CD30 antibody (5F11) Fc variant F404W | 1.7
3 | anti-CD30 antibody (5F11) Fc variant G446W | 1.1
4 | anti-CD30 antibody (5F11) Fc variant A378P | 0.6
5 | anti-CD30 antibody (5F11) Fc variant S354R | 1.3
6 | anti-CD30 antibody (5F11) Fc variant P247I | 1.1
7 | anti-CD30 antibody (5F11) Fc variant E356K | 1.4
8 | anti-CD30 antibody (5F11) Fc variant P396I | 1.4
9 | anti-CD30 antibody (5F11) Fc variant S254W | 0.2
10 | anti-CD30 antibody (5F11) Fc variant S426W | 0.6
11 | anti-CD30 antibody (5F11) Fc variant D376T | 1.6
